Values of other authors as cited in article PMC6815954, “Rational design of caspase-responsive smart molecular probe for positron emission tomography imaging of drug-induced apoptosis” (Theranostics, 2019).

Test system: tumor
Design: method as in PMID 25972517

B1: ^99mTc-Annexin V: established radiotracer (protein, UniProt P08758 2-320, looked up)
Annexin A5: AQVLRGTVTDFPGFDERADAETLRKAMKGLGTDEESILTLLTSRSNAQRQEISAAFKTLFGRDLLDDLKSELTGKFEKLIVALMKPSRLYDAYELKHALKGAGTNEKVLTEIIASRTPEELRAIKQVYEEEYGSSLEDDVVGDTSGYYQRMLVVLLQANRDPDAGIDEAQVEQDAQALFQAGELKWGTDEEKFITIFGTRSVSHLRKVFDKYMTISGFQIEETIDRETSGNLEQLLLAVVKSIRSIPAYLAETLYYAMKGAGTDDHTLIRVMVSRSEIDLFNIRKEFRKNFATSLYSMIKGDTSGDYKKALLLLCGEDD
modifications: 99mTc radiolabel
notes: established radiotracer
differential response to treatment: little differential response
